Read-outs that look alike come from different tables or passages of the source.
Assays:
E. coli SV6 groEL673 = assay: In vivo complementation of ts groEL673 at 43° C.; format: cell-based; conditions: for Relative colony forming ability, SV6 groEL673: plasmids pJC, relative to growth at 30° C.
Procedure: (§1) In vivo Complementation Experiments.
(§2) Complementation experiments were performed by transforming electro-competent SV2 or SV6 cells with the pJC series of expression vectors and plating an aliquot of the transformation reactions directly at 43° C. The percentage of viable cells relative to the growth at 30° C. was determined. A representative number of clones which grew at 43° C. were incubated in absence of any selective markers at permissive temperature. After prolonged growth the loss of the pJC plasmids and the ts phenotype were verified. Each experiment was performed in duplicate. Plasmids carrying no groE genes or encoding the GroE proteins were used as negative or positive controls, respectively.

bacteriophage λ = assay: Growth of bacteriophage λ in transformed groEL strains; format: cell-based, bacteriophage λ (b2cI) in E. coli; design: key to Growth of bacteriophage λ, SV1 (groEL^+) / Growth of bacteriophage λ, SV2 groEL44: +++: normal plaque-forming ability relative to wild-type groEL^+ strain, in terms of both number and size; ++: 5-fold fewer plaques relative to wild-type groEL^+ strain, or both; 10-fold fewer plaques, or plaque size reduced relative to wild-type groEL^+ strain, or both; +/−: 10^2-fold fewer plaques and plaque size reduced relative to wild-type groEL^+ strain; no visible plaques (<10^−4); conditions: for Effect of over-expression on λ growth / plaque counts: SV1 (groE^+); for Growth of bacteriophage λ, SV1 (groEL^+) / Growth of bacteriophage λ, SV2 groEL44 / Growth of bacteriophage λ, SV3 GroEL59 / Growth of bacteriophage λ, SV6 groEL673: 30° C.
Description: (§3) The E. Coli strains used in this study were: C41(DE3), a mutant of BL21(DE3) capable of expressing toxic genes (Miroux, B. & Walker, J. E. (1996) J. Mol. Biol. 260, 289-298); SV2 (B178groEL44), SV3 (B178groEL59) and SV6 (B178groEL673): isogenic strains carrying temperature-sensitive alleles of groEL; SV1(=B178) (Georgopoulos, C., Hendrix, R. W., Casjens, S. R. & Kaiser, A. D. (1973) J. Mol. Biol. 76, 45-60), A190 (ΔgroEL::kan^R) [pBAD-EL] (Ivic, A., Olden, D., Wallington, E. J. & Lund, P. A. (1997) Gene 194, 1-8), and TG1 (Gibson, T. J. (1984) Ph.D. thesis, University of Cambridge, U.K). Bacteriophage λb2cI (Zeilstra-Ryalls, J., Fayet, O., Baird, L. & Georgopoulos, C. (1993) J. Bacteriol. 175, 1134-1143) was used according to standard methods (Arber, W., Enquist, L., Hohn, B., Murray, N. E. & Murray, K. (1983) in Lambda II., ed. R. W. Hendrix, J. W. r., F. W. Stahl and R. A. Weisberg (Cold Spring Harbor Laboratory, Cold Spring Harbor, N.Y.), pp. 433-466); plaque formation was assayed at 30° C. T4D0, a derivative of bacteriophage T4 (Zeilstra-Ryalls, J., Fayet, O., Baird, L. & Georgopoulos, C. (1993) J. Bacteriol. 175, 1134-1143), was used according to standard methods (Karam, J. D. (1994) Molecular biology of bacteriophage T4. (American Society for Microbiology, Washington, D.C.)); plaque formation was assayed at 37° C.

E. coli SV2 groEL44 = assay: In vivo complementation of ts groEL44 at 43° C.; format: cell-based; conditions: for Relative colony forming ability, SV2 groEL44: plasmids pJC, relative to growth at 30° C.
Procedure: as §1, §2

[1] = tested on: mutant Huntingdon exon 1-expressing PC12 and SH-SY5Y cells; assay: Inclusion formation and cell death, mutant Huntingdon exon 1; format: cell-based; conditions: overexpression
Description: These phenomena have been studied by transiently transfecting part of Huntingdon exon 1 in COS-7, PC12, and SH-SY5Y cells. Inclusion formation was not seen with constructs expressing 23 glutamines but was repeat length and time dependent for mutant constructs with 43-74 repeats. HSP70, HSP40, the 20S proteasome and ubiquitin colocalized with inclusions. […] Thus, inclusion formation may be enhanced in polyglutamine diseases, if the pathological process results in proteasome inhibition or a heat-shock response. […] To our knowledge, this is the first report of an HSP increasing aggregation of an abnormally folded protein in mammalian cells and expands the current understanding of the roles of HDJ-2yHSDJ in protein folding (See Wyttenbach, A. et al. (2000) Proc. Natl. Acad. Sci. USA 97, 2899-2903).
We have tested MC72 in the same system.

bacteriophage T4 = assay: Growth of bacteriophage T4 in transformed groEL strains; format: cell-based, bacteriophage T4 (T4D0) in E. coli; design: key to Growth of bacteriophage T4, SV1 (groEL^+) / Growth of bacteriophage T4, SV2 groEL44 / Growth of bacteriophage T4, SV3 GroEL59 / Growth of bacteriophage T4, SV6 groEL673: +++: normal plaque-forming ability relative to wild-type groEL^+ strain, in terms of both number and size; ++: 5-fold fewer plaques relative to wild-type groEL^+ strain, or both; 10-fold fewer plaques, or plaque size reduced relative to wild-type groEL^+ strain, or both; +/−: 10^2-fold fewer plaques and plaque size reduced relative to wild-type groEL^+ strain; no visible plaques (<10^−4); conditions: for Growth of bacteriophage T4, SV1 (groEL^+) / Growth of bacteriophage T4, SV2 groEL44 / Growth of bacteriophage T4, SV3 GroEL59 / Growth of bacteriophage T4, SV6 groEL673: 37° C.
Description: as §3

[2] = tested on: mutant Huntingdon exon 1-expressing PC12 and SH-SY5Y cells; conditions: overexpression; cited from earlier work
[3] = tested on: AI90 (ΔgroEL::kan^R) [pBADEL] E. coli strain; assay: Plating ability of AI90 on GroEL depletion at 37° C.; format: cell-based; design: key to Plating ability, 0.00 % L(+)arabinose: +++: growth identical to that in presence of 0.2% L(+)arabinose (100%), in terms of both number and size; ++: about 50% of the colonies relative to that in presence of 0.2% L(+)arabinose; +: about 30% of the colonies; +/−: ≦5% of the colonies and size reduced relative to that in presence of 0.2% L(+)arabinose; −: no visible colonies
Procedure: AI90 (ΔgroEL::kan^R) [pBAD-EL] cells were transformed with the pJC vector series. Transformants were selected at 37° C. on LB supplemented with 50 μg.ml^−1 of kanamycin, 120 μg.mL^−1 of ampicillin, 25 μg.mL^−1 of chloramphenicol and 0.2% L(+)arabinose. Depletion of GroEL protein was analysed at 37° C. by plating the same quantity of AI90 [PBAD-EL+pJC vectors] cells on LB plates containing 1% D(+)glucose or various amount of arabinose.
Each experiment was performed in triplicate. Plasmids carrying no groE genes or encoding the GroE proteins were used as negative or positive controls, respectively.

Question: With “GroES-EL: plasmid encoding the GroE proteins GroES and GroEL, positive control” as the molecule, how does the “Relative colony forming ability, SV6 groEL673” value (E. coli SV6 groEL673) read?
Answer: Its value is 1.

Question: What about the “Effect of over-expression on λ growth / plaque counts” value (bacteriophage λ) of the same molecule?
Answer: Its value is “four-fold drop in plaques”.

Question: And the “Relative colony forming ability, SV2 groEL44” value (E. coli SV2 groEL44)?
Answer: Its value is 1.

Question: Which cell death [1] does the source give for yeast Hsp104: yeast chaperone Hsp104 here?
Answer: Its cell death is “reduced”.

Question: And the inclusion formation [1]?
Answer: Its inclusion formation is “reduced inclusion formation”.

B1: sht-GroEL(193-335): short histidine tail minichaperone, GroEL residues 193-335 (protein, UniProt P0A6F5 193-335, looked up, fragment)
chain: MQFDRGYLSPYFINKPETGAVELESPFILLADKKISNIREMLPVLEAVAKAGKPLLIIAEDVEGEALATLVVNTMRGIVKVAAVKAPGFGDRRKAMLQDIATLTGGTVISEEIGMELEKATLEDLGQAKRVVINKDTTTIIDG
modifications: short His tag
Question: For B1, which “Complementation of the groEL673 defect in SV6” value (E. coli SV6 groEL673) is on record?
Answer: The value was “less well”.

Question: What about the “Relative colony forming ability, SV6 groEL673” value (E. coli SV6 groEL673) of the same molecule?
Answer: The value was 0.03-0.05.

Question: What about the “Complementation of the groEL44 defect in SV2” value (E. coli SV2 groEL44) of the same molecule?
Answer: Its value is “complements the defect in SV2”.

Question: And the “Relative colony forming ability, SV2 groEL44” value (E. coli SV2 groEL44)?
Answer: The value was 0.05-0.09.

B2: sht-GroEL(191-345): short histidine tail minichaperone, GroEL residues 191-345 (protein, UniProt P0A6F5 191-345, looked up, fragment)
chain: EGMQFDRGYLSPYFINKPETGAVELESPFILLADKKISNIREMLPVLEAVAKAGKPLLIIAEDVEGEALATLVVNTMRGIVKVAAVKAPGFGDRRKAMLQDIATLTGGTVISEEIGMELEKATLEDLGQAKRVVINKDTTTIIDGVGEEAAIQGR
modifications: short His tag
Question: With B2 as the molecule, how does the “Complementation of the groEL673 defect in SV6” value (E. coli SV6 groEL673) read?
Answer: Its value is “complemented”.

Question: What about the “Relative colony forming ability, SV6 groEL673” value (E. coli SV6 groEL673) of the same molecule?
Answer: The value was 0.07-0.09.

Question: And the “Relative colony forming ability, SV2 groEL44” value (E. coli SV2 groEL44)?
Answer: Its value is 0.01-0.02.

B3: GroES(1-97): co-chaperone of GroEL, seven membered ring of 10 kD subunits (protein, UniProt P0A6F9 1-97, looked up)
Co-chaperonin GroES: MNIRPLHDRVIVKRKEVETKSAGGIVLTGSAAAKSTRGEVLAVGNGRILENGEVKPLDVKVGDIVIFNDGYGVKSEKIDNEEVLIMSESDILAIVEA
Question: With B3 as the molecule, how does the “Relative colony forming ability, SV6 groEL673” value (E. coli SV6 groEL673) read?
Answer: The value was <10^−4.

Question: What about the “Growth of bacteriophage T4, SV1 (groEL^+)” value (bacteriophage T4) of the same molecule?
Answer: Its value is “+++”.

Question: What about the “Growth of bacteriophage T4, SV2 groEL44” value (bacteriophage T4) of the same molecule?
Answer: Its value is “+++”.

Question: And the “Growth of bacteriophage T4, SV3 GroEL59” value (bacteriophage T4)?
Answer: Its value is “+++”.

Question: And the “Growth of bacteriophage T4, SV6 groEL673” value (bacteriophage T4)?
Answer: The value was “− (no visible plaques (<10^−4))”.

Question: And the “Effect of over-expression on bacteriophage T4 growth in groEL strains” value (bacteriophage T4; groEL strains)?
Answer: Its value is “allele-specific complementation”.

Question: And the “Complementation of groEL mutant strains for bacteriophage λ growth” value (bacteriophage λ)?
Answer: The value was “allele-specific complementation”.

Question: And the “Growth of bacteriophage λ, SV1 (groEL^+)” value (bacteriophage λ)?
Answer: Its value is “+++”.

Question: What about the “Growth of bacteriophage λ, SV2 groEL44” value (bacteriophage λ) of the same molecule?
Answer: Its value is “+++”.

Question: What about the “Growth of bacteriophage λ, SV3 GroEL59” value (bacteriophage λ) of the same molecule?
Answer: Its value is “− (no visible plaques (<10^−4))”.

Question: And the “Growth of bacteriophage λ, SV6 groEL673” value (bacteriophage λ)?
Answer: The value was “− (no visible plaques (<10^−4))”.

Question: And the “Effect of over-expression on λ growth / plaque counts” value (bacteriophage λ)?
Answer: The value was “no effect”.

Question: What about the “Relative colony forming ability, SV2 groEL44” value (E. coli SV2 groEL44) of the same molecule?
Answer: The value was 5 × 10^−3.

B4: GroEL(191-345): GroEL(191-345) minichaperone monomer (protein, UniProt P0A6F5 191-345, looked up, fragment)
chain: B2 chain
modifications: apical domain
notes: GroEL(191-345) minichaperone monomer
Question: For B4, which cell death [2] is on record?
Answer: Its cell death is “reduced cell death”.

Question: What about the “proportion of cells with inclusions / inclusion formation” value [2] of the same molecule?
Answer: The value was “reduced slightly but significantly”.

B5: sht-GroEL(191-376): histidine-tagged (short histidine tail; sht) minichaperone GroEL(191-376) (protein, UniProt P0A6F5 191-376, looked up, fragment)
chain: EGMQFDRGYLSPYFINKPETGAVELESPFILLADKKISNIREMLPVLEAVAKAGKPLLIIAEDVEGEALATLVVNTMRGIVKVAAVKAPGFGDRRKAMLQDIATLTGGTVISEEIGMELEKATLEDLGQAKRVVINKDTTTIIDGVGEEAAIQGRVAQIRQQIEEATSDYDREKLQERVAKLAGGV
modifications: short His tag
Question: What does the source list for B5?
Answer: Relative colony forming ability, SV6 groEL673 (E. coli SV6 groEL673): <10^−4; Plating ability, 0.00 % L(+)arabinose ([3]; 0.00% arabinose): −; Plating ability, 0.01 % L(+)arabinose ([3]; 0.01% arabinose): +/− (≦5% of the colonies and size reduced relative to that in presence of 0.2% L(+)arabinose); Plating ability, 0.10 % L(+)arabinose ([3]; 0.10% arabinose): + (about 30% of the colonies); Plating ability, 0.15 % L(+)arabinose ([3]; 0.15% arabinose): ++ (about 50% of the colonies relative to that in presence of 0.2% L(+)arabinose); Growth of bacteriophage T4, SV1 (groEL^+) (bacteriophage T4): +++; Growth of bacteriophage T4, SV2 groEL44 (bacteriophage T4): − (no visible plaques (<10^−4)); Growth of bacteriophage T4, SV3 GroEL59 (bacteriophage T4): +++; Growth of bacteriophage T4, SV6 groEL673 (bacteriophage T4): − (no visible plaques (<10^−4)); Growth of bacteriophage λ, SV1 (groEL^+) (bacteriophage λ): +++; Growth of bacteriophage λ, SV2 groEL44 (bacteriophage λ): − (no visible plaques (<10^−4)); Growth of bacteriophage λ, SV3 GroEL59 (bacteriophage λ): − (no visible plaques (<10^−4)); Growth of bacteriophage λ, SV6 groEL673 (bacteriophage λ): − (no visible plaques (<10^−4)); Relative colony forming ability, SV2 groEL44 (E. coli SV2 groEL44): <10^−4
